Data as given in PMC12102759 (2025).

B1: SH3BP2 peptide 408-423 (SH3 domain-binding protein 2), 16-mer library wild type / TNKS ANK (TNKS 12 ANK repeats, residues 174-649) (parent complex)
chain 1: PQLPHLQRSPPDGQSF
chain 2: TGVPAVSGALRELLEACRNGDVSRVKRLVDAANVNAKDMAGRKSSPLHFAAGFGRKDVVEHLLQMGANVHARDDGGLIPLHNACSFGHAEVVSLLLCQGADPNARDNWNYTPLHEAAIKGKIDVCIVLLQHGADPNIRNTDGKSALDLADPSAKAVLTGEYKKDELLEAARSGNEEKLMALLTPLNVNCHASDGRKSTPLHLAAGYNRVRIVQLLLQHGADVHAKDKGGLVPLHNACSYGHYEVTELLLKHGACVNAMDLWQFTPLHEAASKNRVEVCSLLLSHGADPTLVNCHGKSAVDMAPTPELRERLTYEFKGHSLLQAAREADLAKVKKTLALEIINFKQPQSHETALHCAVASLHPKRKQVTELLLRKGANVNEKNKDFMTPLHVAAERAHNDVMEVLHKHGAKMNALDTLGQTALHRAALAGHLQTCRLLLSYGSDPSIISLQGFTAAQMGNEAVQQILSESTPIRTSD
B2: AXIN1 peptide 237-252 (Axin-1), 16-mer library wild type / PP2A B56 (PPP2R5A B56 domain, residues 1-486) (parent complex)
chain 1: YLPTLNEDEEWKADQD
chain 2: not shown

Variants of: B1
Assay: proteomic peptide phage display deep mutational scan (ProP-PD DMS): M13 P8 16-mer library selected against immobilised GST-tagged bait for four days (rounds), NGS of the eluted pools per day and pseudo-replica; bait immobilised on MaxiSorp plates (10 µg), library pre-cleared on GST, 2 h binding at 4 °C, five washes; one round per day, days 1-4; value from days 2 and 3

Variant	screen value
chain 1 PQLGHLQRSPPDGQSF	0.000551 average fractional NGS count over selection days 2 and 3 (reads of this peptide / all reads for the bait, averaged over …
chain 1 PQLTHLQRSPPDGQSF	0.000173 average fractional NGS count over selection days 2 and 3 (reads of this peptide / all reads for the bait, averaged over …
chain 1 PQLPHLQRSPPVGQSF	0.000643 average fractional NGS count over selection days 2 and 3 (reads of this peptide / all reads for the bait, averaged over …
chain 1 PQLPHLQRSPPDGASF	0.00095 average fractional NGS count over selection days 2 and 3 (reads of this peptide / all reads for the bait, averaged over …
chain 1 PQLPHLQRSAPDGQSF	0.000707 average fractional NGS count over selection days 2 and 3 (reads of this peptide / all reads for the bait, averaged over …
chain 1 PQLPHLQRHPPDGQSF	0.00219 average fractional NGS count over selection days 2 and 3 (reads of this peptide / all reads for the bait, averaged over …
chain 1 PQLPHLQRDPPDGQSF	0.00106 average fractional NGS count over selection days 2 and 3 (reads of this peptide / all reads for the bait, averaged over …
chain 1 PTLPHLQRSPPDGQSF	0.000819 average fractional NGS count over selection days 2 and 3 (reads of this peptide / all reads for the bait, averaged over …
chain 1 PILPHLQRSPPDGQSF	0.000434 average fractional NGS count over selection days 2 and 3 (reads of this peptide / all reads for the bait, averaged over …
chain 1 PYLPHLQRSPPDGQSF	0.000238 average fractional NGS count over selection days 2 and 3 (reads of this peptide / all reads for the bait, averaged over …
chain 1 PQYPHLQRSPPDGQSF	0.000217 average fractional NGS count over selection days 2 and 3 (reads of this peptide / all reads for the bait, averaged over …
chain 1 PQQPHLQRSPPDGQSF	0.000641 average fractional NGS count over selection days 2 and 3 (reads of this peptide / all reads for the bait, averaged over …
chain 1 PQLPHYQRSPPDGQSF	0.000851 average fractional NGS count over selection days 2 and 3 (reads of this peptide / all reads for the bait, averaged over …
chain 1 PQLPHMQRSPPDGQSF	0.000442 average fractional NGS count over selection days 2 and 3 (reads of this peptide / all reads for the bait, averaged over …

Variants of: B2
Assay: as above

Variant	screen value
chain 1 E9L	0.000568 average fractional NGS count over selection days 2 and 3 (reads of this peptide / all reads for the bait, averaged over …
chain 1 E9D	0.000572 average fractional NGS count over selection days 2 and 3 (reads of this peptide / all reads for the bait, averaged over …
chain 1 E9H	0.000956 average fractional NGS count over selection days 2 and 3 (reads of this peptide / all reads for the bait, averaged over …
chain 1 E9M	0.00292 average fractional NGS count over selection days 2 and 3 (reads of this peptide / all reads for the bait, averaged over …
chain 1 E9K	0.00203 average fractional NGS count over selection days 2 and 3 (reads of this peptide / all reads for the bait, averaged over …
chain 1 E9F	0.00128 average fractional NGS count over selection days 2 and 3 (reads of this peptide / all reads for the bait, averaged over …
chain 1 E9Y	0.0102 average fractional NGS count over selection days 2 and 3 (reads of this peptide / all reads for the bait, averaged over …
chain 1 E10Q	0.000224 average fractional NGS count over selection days 2 and 3 (reads of this peptide / all reads for the bait, averaged over …
chain 1 E10L	0.00181 average fractional NGS count over selection days 2 and 3 (reads of this peptide / all reads for the bait, averaged over …
chain 1 E10G	0.00014 average fractional NGS count over selection days 2 and 3 (reads of this peptide / all reads for the bait, averaged over …
chain 1 E10S	0.000255 average fractional NGS count over selection days 2 and 3 (reads of this peptide / all reads for the bait, averaged over …
chain 1 E10H	0.000923 average fractional NGS count over selection days 2 and 3 (reads of this peptide / all reads for the bait, averaged over …
chain 1 E10F	0.000572 average fractional NGS count over selection days 2 and 3 (reads of this peptide / all reads for the bait, averaged over …
chain 1 T4M	0.000565 average fractional NGS count over selection days 2 and 3 (reads of this peptide / all reads for the bait, averaged over …
chain 1 T4Y	0.00014 average fractional NGS count over selection days 2 and 3 (reads of this peptide / all reads for the bait, averaged over …
chain 1 T4V	0.000271 average fractional NGS count over selection days 2 and 3 (reads of this peptide / all reads for the bait, averaged over …
chain 1 D8M	0.000462 average fractional NGS count over selection days 2 and 3 (reads of this peptide / all reads for the bait, averaged over …
chain 1 D8I	0.000369 average fractional NGS count over selection days 2 and 3 (reads of this peptide / all reads for the bait, averaged over …
chain 1 D8W	0.000322 average fractional NGS count over selection days 2 and 3 (reads of this peptide / all reads for the bait, averaged over …

Variant	screen value
chain 1 D8N	0.000367 average fractional NGS count over selection days 2 and 3 (reads of this peptide / all reads for the bait, averaged over …
chain 1 D8V	0.000175 average fractional NGS count over selection days 2 and 3 (reads of this peptide / all reads for the bait, averaged over …
chain 1 Q15H	0.0369 average fractional NGS count over selection days 2 and 3 (reads of this peptide / all reads for the bait, averaged over …
chain 1 Q15E	0.00341 average fractional NGS count over selection days 2 and 3 (reads of this peptide / all reads for the bait, averaged over …
chain 1 Q15D	0.000993 average fractional NGS count over selection days 2 and 3 (reads of this peptide / all reads for the bait, averaged over …
chain 1 Q15K	0.000314 average fractional NGS count over selection days 2 and 3 (reads of this peptide / all reads for the bait, averaged over …
chain 1 Q15I	0.00307 average fractional NGS count over selection days 2 and 3 (reads of this peptide / all reads for the bait, averaged over …
chain 1 Q15Y	0.00911 average fractional NGS count over selection days 2 and 3 (reads of this peptide / all reads for the bait, averaged over …
chain 1 Q15M	0.00211 average fractional NGS count over selection days 2 and 3 (reads of this peptide / all reads for the bait, averaged over …
chain 1 P3Y	0.000178 average fractional NGS count over selection days 2 and 3 (reads of this peptide / all reads for the bait, averaged over …
chain 1 P3H	0.00026 average fractional NGS count over selection days 2 and 3 (reads of this peptide / all reads for the bait, averaged over …
chain 1 P3E	0.000951 average fractional NGS count over selection days 2 and 3 (reads of this peptide / all reads for the bait, averaged over …
chain 1 K12M	0.000504 average fractional NGS count over selection days 2 and 3 (reads of this peptide / all reads for the bait, averaged over …
chain 1 K12T	0.00858 average fractional NGS count over selection days 2 and 3 (reads of this peptide / all reads for the bait, averaged over …
chain 1 K12G	0.00482 average fractional NGS count over selection days 2 and 3 (reads of this peptide / all reads for the bait, averaged over …
chain 1 K12A	0.00844 average fractional NGS count over selection days 2 and 3 (reads of this peptide / all reads for the bait, averaged over …
chain 1 K12F	0.00191 average fractional NGS count over selection days 2 and 3 (reads of this peptide / all reads for the bait, averaged over …
chain 1 Y1M	0.000646 average fractional NGS count over selection days 2 and 3 (reads of this peptide / all reads for the bait, averaged over …
chain 1 Y1T	0.00199 average fractional NGS count over selection days 2 and 3 (reads of this peptide / all reads for the bait, averaged over …

Variant	screen value
chain 1 Y1P	0.000164 average fractional NGS count over selection days 2 and 3 (reads of this peptide / all reads for the bait, averaged over …
chain 1 Y1I	0.00029 average fractional NGS count over selection days 2 and 3 (reads of this peptide / all reads for the bait, averaged over …
chain 1 N6R	0.000965 average fractional NGS count over selection days 2 and 3 (reads of this peptide / all reads for the bait, averaged over …
chain 1 N6K	0.0012 average fractional NGS count over selection days 2 and 3 (reads of this peptide / all reads for the bait, averaged over …
chain 1 N6V	0.00339 average fractional NGS count over selection days 2 and 3 (reads of this peptide / all reads for the bait, averaged over …
chain 1 N6D	0.00102 average fractional NGS count over selection days 2 and 3 (reads of this peptide / all reads for the bait, averaged over …
chain 1 A13Y	0.00559 average fractional NGS count over selection days 2 and 3 (reads of this peptide / all reads for the bait, averaged over …
chain 1 A13F	0.000843 average fractional NGS count over selection days 2 and 3 (reads of this peptide / all reads for the bait, averaged over …
chain 1 A13M	0.000333 average fractional NGS count over selection days 2 and 3 (reads of this peptide / all reads for the bait, averaged over …
chain 1 A13W	0.00128 average fractional NGS count over selection days 2 and 3 (reads of this peptide / all reads for the bait, averaged over …
chain 1 W11V	0.000957 average fractional NGS count over selection days 2 and 3 (reads of this peptide / all reads for the bait, averaged over …
chain 1 W11Q	0.000237 average fractional NGS count over selection days 2 and 3 (reads of this peptide / all reads for the bait, averaged over …
chain 1 W11I	0.000232 average fractional NGS count over selection days 2 and 3 (reads of this peptide / all reads for the bait, averaged over …
chain 1 D14K	0.000793 average fractional NGS count over selection days 2 and 3 (reads of this peptide / all reads for the bait, averaged over …
chain 1 D14M	0.0116 average fractional NGS count over selection days 2 and 3 (reads of this peptide / all reads for the bait, averaged over …
chain 1 D14H	0.038 average fractional NGS count over selection days 2 and 3 (reads of this peptide / all reads for the bait, averaged over …
chain 1 D14L	0.00106 average fractional NGS count over selection days 2 and 3 (reads of this peptide / all reads for the bait, averaged over …
chain 1 D14R	0.0071 average fractional NGS count over selection days 2 and 3 (reads of this peptide / all reads for the bait, averaged over …
chain 1 D14W	0.0112 average fractional NGS count over selection days 2 and 3 (reads of this peptide / all reads for the bait, averaged over …
